Results published in the nanobody polyreactivity screen of Harvey et al. (2022).

Assay: yeast display, Sf9 membrane polyspecificity reagent, FACS + sequencing; frameworks hold sequencing errors
Procedure, shortened: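 Galactose-induced (36–48 hours) yeast carrying a synthetic nanobody display library were exposed to 10% biotinylated, detergent-solubilized Sf9 membrane reagent at 4 °C for 1 hour. FACS followed streptavidin microbead enrichment, using low and high (top ~1%) gates for expression (anti-HA) and reagent binding (streptavidin). Colony PCR, MiSeq 2 × 250 sequencing and CDR-length filtering followed. Labels for polyreactivity reflect the gate of origin.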

Row | Sequence | polyreactivity (PSR sort gate)
1 | QVQLVESGGGLVQAGGSLRLSCAASGRTFIVYAMGWYRQAPGKERELVAAITRSGSSTYYADSVKGRFTISRDNAKNTVYLQMNSLKPEDTAVYYCAADVGFGGYSHFDPYEYWGQGTQVTVSS | high polyreactivity
2 | QVQLVESGGGLVQAGGSLRLSCAASVSIFFSYAMGWYRQAPGKERELVASITWSGDTTYYADSVKGRFTISRDNAKNTVYLQMNSLKPEDTAVYYCAAVNRGGYDYWGQGTQVTVSS | low polyreactivity
3 | QVQLVESGGGLLQAGGSLRLSCAASGSIFGDNAMVWYRQAPWKERDLVATISSSDASTYYADSVKGRFTISRDNAKNTVNLQMNSLKPEDTAVYYCAKEVTAGYHVWYDYWGQGTQVTVSS | low polyreactivity
4 | QVQLVESGGGLVQAGGRLSLSCAASGSIFRPNPMGWYRQAPGKERELVAAITWSGDSTYYADSVKGRFTISRDNAKNTVYLKMNSLKPEDTAVYYCAADFTYQGSSANDYWGQGTQVTVSS | low polyreactivity
5 | QVQLVESGGGLVQAGGSLRLICAASGSTFYYNDMGWYRQAPGKERELVAAITGDGTTDYADSVKGRFTISRDNAKNTVYLQMNSLKPEDTAVYYCATTWSTYKWPDAYIIWYGYWGQGTQVTVSS | high polyreactivity
6 | QVQLVESGGGLVQAGGSLRLSCAASGSTFYPYVMGWYRQAPGKERELVAGISYRGGITYYADSVKGRFTISRDYAKNTVYLQMNSLKPEDTAVYYCAADYWSVYLARKMDYWGQGTQVTVSS | low polyreactivity
7 | QVQLVESGGGLVQAGGSLRLSCAASGFIFKIYAMGWYRQAPGKERELVAAISSGDNTNYADSVKGRFTISRDNAKNTVYLQMNSLKPEDNAVYYCAALRYTYLGQLQWSRSGRYDYWGQGTQVTVSS | high polyreactivity
8 | QVQLVESGGGLVQAGGSLRLSCAASGSTFRLYAMGWYRQAPGKERELVAAIRSGGNTNYADSVKGRFTISRDNAKNTVYLQMNSLKPEDTAVYYCAATYGTGRRSKYGYWGQGTQVTVSS | high polyreactivity
9 | QVQLVESGGGLVQSGGSLRLSCAASGRTFNANVMGWYRPAPGKERELVAAITYSGGSTYYADSVKGRFTISRDNAKNTVYLQMNSLKPEDTAVYYCAADYVYTFYYWGQGTQVTVSS | low polyreactivity
10 | QVQLVESGGGLVQAGGSLRLSCAASGSIFRDYAMGWYRPAPGKERELVAAISSGVSTNYADSVKGRFSISRDNAKNSVYLKMNSLIPEDTAVYYCNTDKYSESFRSYEYWGQGTQVTVSS | low polyreactivity
11 | QVQLVESGGGLVQAGGSLRLSCAASGGTLYLYAMGWYRPAPGKERELVAAISYNGGSTYADSVKGRFTISRDNAKNTVYLQMNSLKPEDTAVYYCAADRSPRCLGGYWGQGTQVTVSS | low polyreactivity
12 | QVQLVESGGGLVQAGGSLRLSCAASGSTFVYYAMGSYIQAPGKERELVAAISSGGNTKYADSVKGRFTISRDNAMNTVYLHMNRLKPEDTAVYYCARETQSYFDHDYWGQGTQVTVSS | low polyreactivity
13 | QVQLVESGGGLVQAGGSLRLSCAASGRIFIAYAMGWYRQAPGKERELVAAITDDGGTNYADSVKGRFTISRDNAKNTVYLQMNSLKPEDTAVYYCAATYLIGYYYVWEYDYWGQGTHVTVSS | low polyreactivity
14 | QVQLVESGGGLVQAGGSLRLSCAASGSTFTRYAMGWYRQAPGKERELVAGITGRGGSTYYADSVKGRFTISRDNAKNTVYFQMNSLKPEDTAVYYCNKRRRGVTTYDYWGQGTQVTVSS | high polyreactivity
15 | QVQLVESGGGLVQAGGSLRLSCAASGRTFSPYAMGWYRQAPVKERELVAAITSGGRTNYADSVKGRFTISRDNAKNTVYLQMNSLKPEDTAVYYCAARSGRYRWTRFDYWGQGTQVTVSS | low polyreactivity
16 | QVQLVESGGGLVQAGGTLRLSCAASGSIQYRYAMGWYRQAHGKERELVAAISARGGNTYYADSVKGRFTISRDNAKNTVYVQMNSLKPEDTAVYYCAATYRGYRLHVAYDYWGQGTQVTVSS | high polyreactivity
17 | QVQLVESGGGLVQAGGSLRLSCAASGSIFGYYTMGWYIQAPGKERELVATITSGGSTYYADSVKGRFTISRDNAKNSVSLQMNSLKPEDTAVYYCNADRYWRVYWGQGTQVTVSS | high polyreactivity
18 | QVQLVESGGGLVQAGGSLRLSCAASGLIFGRNARGWYRQAPGKERELVAVISKRGGSTYYADSVKGRFTISRDNAKNTVYLQMNSLKPADTAVYYCAADYGSTGNYWGQGTQVTVSS | high polyreactivity
19 | QVQLVESGGGLVQAGGSLRLSCAASGLNFSGYAMGWYRQAPGKESEMVAAINSGTSTTYADSVKARFTISRDNAKNTVYLQMNSMKPDDTAVYSCSATLEGGWWATYGSDYWGRGTQVTVSS | low polyreactivity
20 | QVQLVESGGGLVQAGGSLRLSCAASGFTFIKYAMGWYRQAPGKEREFVATISWNGGNTYYADSVKGRFTISRDNAKNTVYLQMNSLKPEDTAVYYCAARVKYRTRGGTVVSYDYWGQGTQVTVSS | high polyreactivity
21 | QVQLVESGGGLVQAGGSLRLSCAASGSNFTGYGMGWYRQAPGKETELVAAITWSGGSTYYADSVKGRFTISRDNAKNTVYLQMNSLKPEDTAVYYCATPGIYYEMDYWGQGTQVTVSS | low polyreactivity
22 | QVQLVESGGGLVQAGGSLRLSCAASGFTFGTNAMGWYRQAPGKEMELVAAITWSGGRTYYADSVKGRFTISRDNAKNTVYLQMNSRKQEDTAVYYCAKQYYRNKYEYWGQGTQVTVSS | high polyreactivity

Row | Sequence | polyreactivity (PSR sort gate)
23 | QVQLVESGGGLVQAGGSLRLSCAASGSTFTHYAMGWYRQAPGKERELVAAITSSGGSTYYADSVKGRFTISRDNAKNTDYLQMNSLKPVDTAVYYCAARGSYRNRYRHDYWGQGTQVTVSS | high polyreactivity
24 | QVQLVESGGGLVQAGGSLRLSCAASGSIFTDYTMGWYRQAPGKERELVAAISWIGDSTDYADSVKGRFTISRDNAKNTVYLQMNSLKPEDTAVYYCAKSRAGRYNDYDYWGQGTQVTVSS | low polyreactivity
25 | QVQLVESGGGLVHAGGSLRLSCAASGLTFVNYAMGWYRQAPGKERELVATISKTGGSTYYADSVKGRFTISRDNAKNTVFLQMNSLKPEDTAVYYCAVDAYYYKWYDYWGQGTQVSVSS | high polyreactivity
26 | QVQLVESGGGLVQAGGSLRLSCAASGRTFAPYALGWYRQAPRKERELVAAITNGGSTSYADSVKGRFTISRDNAKNTVYLQMNSLKPEDTAVYYCAADANRYHRQRWSPYKMYYWGQGTQVTVSS | low polyreactivity
27 | QVQLVESGGGLVQAGGSLRLSCADSGRIFFKYAMGWYRQAPGKERELVASISRRGGSTTYADSVKGRFTISRDNAKNTVYLQMNSLKPEDTAVYYCNTVSWWGRNYQDEYYYWGQGTQVTVSS | high polyreactivity
28 | QVQLVESGGGLVQAGGSLRLSCAASGRTFYGYPMGWYRQAPGKERELVAAISWSGGSTYYADSVKGRFTISRDNAKNTVYLQMNSLKPEDTAVYYCAAYTYSFRANHDYWGQGTQVTVSS | high polyreactivity
29 | QVQLVETGGGLVQAGGSLRLSCAASGRISQNAMGWYRQAPGKERELVAAITFSGGSTYYADSVKGRFTISRDNAKNTVYIQMNSLKAEDTAVYYCNVRQYTDGMKYDYWGQGTQVTVSA | low polyreactivity
30 | QVQLVESGGGLVQAGRSLRLICAASGRTFTLNAMRWYRQAPGKERELVDAITWGAGSTYYADSVKGRFTISRDNAKNTVYLQMNSLKPEDTAVYYCAARFHGDYYRYRSPSMYYWGQGSQVTVSS | high polyreactivity
31 | QVQLVESGGGLVQAGGSLRLSCAASGSTIGFYAMGWYRQAPGKERELVAVISSSSSTNYADSVKGRFTISRDNAKNTVYLQMNSLKPKIPAVYYCNAKWTTLFDYWGQGTQVTVSS | high polyreactivity
32 | QVQLVESGGGLVQAGGSLRLSCAASGRTFLYYVMGWYRQAPGKERELVAAITNRGGSTYYADSVKGRFTISRDNAKNTVYLQLNSLKPEDTAVYYCNAPYGVYWSSTYYYWGQGTQVTVSS | high polyreactivity
33 | QVQLVESGGGLVQAGGSLRLSCAASGRTSVPYAMGWYRQAPGKERELVAAITSGGSTYYADSVKGRFTISRDNAKNTVYLQMNSQKPEDTAVYYCAASQPHSAPYTASYGSWGQGTQVTVSS | low polyreactivity
34 | QVQLVESGGGLVQAGGSLRLSCAASGFIFKFYAMGWYRQAPGKETELVAAISKSGGRTYYADSVKGRFTISRDNAKNSVYLQMNSLKPEDTAVYYCNAPSVGAAFDYWGQGTQVTVSS | high polyreactivity
35 | QVQLVESGGGLVQAGGSLRLSCAASGRIFVRYAMGWYRQAPGKERELVAAITTTGDSTYADSVKGRFTISRDNAKNTVYLQMNSLKPEDTAVYYCNAAWPESRFLVYHRYDYWGQGTQVTVSS | low polyreactivity
36 | QVKLVESGGGLVQAGGSLRLSCAASGRIFVSKAMGWYRQAPGKERELVAAISKRGASTYYADSVKGRFTISRDKAKNPVYLQINSLKPEDTEVYYCNVVTTGGPNYDYWGQGTQVTVSS | high polyreactivity
37 | QVQLVESGGGLVQAGGSLRLSCAASGSTFWGNAMGWYRQAPGKERELVATITDGGSTNYADSVKGRFTISRDNAKNTVYLQMNSLKPEDTAVYYCNAEEHYNTYVLHFRPYYVRHDYWGQGTQVTVSS | low polyreactivity
38 | QVQLVESGGGLVQAGGSLRLSCAASGSIFVPNAMGWYSQAPGKERELVASISYSGTSTYYADSVKGRFTISRDNAKNTVYLQMNSLKPEDTAVYYCAVTWYPWYYGYWGQGTQVTVSS | high polyreactivity
39 | QVQLVQSGRGLVHAGCSLRLSCAASGRIYAGNAMGLYRQPPGKERELFATITSGGSTYYADSVKGRFTISRDNAKNTVYLQMNSLKPEDTAVYYCNAVNYWVKSRFSLTWEFAVVYWGQGTQVTVSS | low polyreactivity
40 | QVQLVESGGGLVQAGGSLRLSCAASGRIFYSYAMGWYRQAPGKERELVAAITRGGSTSYADSVKGRFTISRDNAKNTVYLQMNSLKPEDTAVYYCATRQFYSYWKYYYWGQGTQVTVSS | high polyreactivity
41 | QVQLEESGGGIVQAGGSLRLSCAASGRTFYGYAMGWYRQAPGKEREFVAAINERGTSTYYADSVKGRFTISRDNAKNTVYLQMNSLKPEDTAVYYCAARYLRTQYQDGTRSRIQLDYWGQGTQVTVSS | high polyreactivity
42 | QVQLVESGGGLVQAGGSLRLSCAASGSIFQYYLIGWYRKAPGKERELVAAIRRSGTTYYADSVKGRFTISRDNAKNTVYLQMNSLKPEDTAVYYCNKVRGQEQSNYDYWGQGTQVTVSS | low polyreactivity
43 | QVQLVESGGGLVQAGGSLRLSCDASGRTFYRNDMGWYRQAPGKERELVAAISSGGSTTYADSVKGRFTISRDNAKNTVYLQMNSLKPEDTAVYYCAADFLDYWGVYGWAEYEYWGQGTQVTVSS | low polyreactivity
